Target: VEGFR-2
Test: cell-based or functional assay

## VEGF-DΔN (from UniProt O43915 93-354) (ligand)
  activity towards the VEGFR-2 bioassay: 10 fold

Source: patent US20020102260A1
